Experimental data as given in paper PMC10130389, “Growth hormone secretagogues modulate inflammation and fibrosis in mdx mouse model of Duchenne muscular dystrophy” (Frontiers in Immunology, 2023).
No end group written: not given here.

Assays:
[1] = tested on: H2K-2B4 cells; experiment: CCK-8 cell viability, WT H2K-2B4 cells; format: cell-based, murine; conditions: at 1 mM, proliferation and differentiation conditions, CCK-8, triplicate
Description: (§1) Wild-type (WT) H2K-2B4 and dystrophic H2K-SF1 cell lines were cultured and used for all the experiments ([48]). Cells were seeded in 96-well cultures (approximately 4–4.5 × 10^3 cells per well) and sixteen hours after seeding were treated with EP80317, JMV2894 (both in the concentration range 100μM to 1mM) or ghrelin (as control in the concentration range 10nM to 100 μM). Cell viability was then evaluated at different time points following the exposure (16-96 h) by using the Cell Counting Kit-8 (CCK-8,96992 Sigma-Aldrich), according to the instruction. The optical density of each well was determined using a microplate reader set to 450 nm (Victor 3V, Perkin Elmer, Waltham, MA, USA). Cell viability was expressed in percentage vs. control properly corrected for blank values.

[2] = tested on: H2K-SF1 cells; experiment: CCK-8 cell viability, dystrophic H2K-SF1 cells; format: cell-based, murine; conditions: at 1 mM, proliferation and differentiation conditions, CCK-8, triplicate
Description: as §1

Substance: ghrelin: 28 amino acid hormone, used as control in the cell viability assay (GSSFLSPEHQRVQQRKESKKPPAKLQPR; ends and bridges not checked; UniProt Q9UBU3 24-51, looked up)
- toxic effect on 2B4 cells [1]: no toxic effect
- toxic effect on SF1 cells [2]: no toxic effect
